Test results reported in US9271932B2, “Fusogenic properties of saposin C and related proteins and peptides for application to transmembrane drug delivery systems” (CHILDREN'S HOSPITAL MEDICAL CENTER, priority 2006, dated 2016).
Residue numbers refer to the chain shown, from its start. Numbers in names are those of the source.

How the values were obtained:
[1] = test system: cultured mouse cortical and hippocampal neurons; assay: Transport of saposin C into cultured neurons by DOPS liposomes; assay type: cell-based; conditions: facilitated by complexes with DOPS liposomes
Method: Saposin C can be transported into endosomal and lysosomal compartments using saposin-C liposomes containing long-chain anionic phospholipids. This method can be used for the treatment of neurological diseases including, for example, those in which MVB accumulation contributes to pathology and progression of disease.
Primary Cortical Neuron Cultures—Cortical neurons are cultured in serum-free Neuroblasal medium with B27 supplements as described by Whitmarsh et al.^44 Take out E16 mouse embryos, cut the head and place them into ice-cold Ca/Mg-free Hank Balance Salt Solution (HBSS) with papain (1 mg/ml). The brain is dissected out and place scalpel along the dorsal midline between the two cerebral hemispheres but slightly deviate towards to the side as it cut. This will give a clean cerebral cortex. […]
Immunofluorescence staining is done as described with minor modification.^15 Cultured cells (1×10^5) in a dish with coverslips are washed with PBS and fixed with 2% paraformaldehyde for 10 min at room temperature. After treating with 0.1% Triton X-100 in PBS, the samples are incubated with each respective primary antiserum (for 2 h) and fluorescence-conjugated secondary antibody (for 1 h) at 37° C. […] Antifade is added on the section to prevent the fluorescence quenching. Fluorescence signals are detected by a confocal microscopy (LSM510, Zeiss) or a fluorescence microscopy (Zeiss Axioskop).

acid β-glucosidase = target: T1, acid β-glucosidase (Homo sapiens, UniProt P04062); assay: Acid β-glucosidase activation in liposomal reconstitution system; assay type: biochemical
T1 sequence (P04062 40-536): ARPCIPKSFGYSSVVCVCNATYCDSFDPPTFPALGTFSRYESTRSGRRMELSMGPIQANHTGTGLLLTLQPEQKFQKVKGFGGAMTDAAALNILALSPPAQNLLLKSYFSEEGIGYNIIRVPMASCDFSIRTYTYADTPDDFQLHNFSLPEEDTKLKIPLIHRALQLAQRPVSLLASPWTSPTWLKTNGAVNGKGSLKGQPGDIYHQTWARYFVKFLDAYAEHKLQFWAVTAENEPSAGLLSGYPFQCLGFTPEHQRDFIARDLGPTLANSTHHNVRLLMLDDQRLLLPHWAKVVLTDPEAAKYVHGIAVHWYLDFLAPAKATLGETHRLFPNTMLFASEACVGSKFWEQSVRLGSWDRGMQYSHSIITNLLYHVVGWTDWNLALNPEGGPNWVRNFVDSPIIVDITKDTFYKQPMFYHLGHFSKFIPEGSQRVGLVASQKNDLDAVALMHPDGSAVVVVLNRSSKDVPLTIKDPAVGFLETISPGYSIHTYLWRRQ
Method: Functional saposins were overexpressed in BL21(DE3) cells using a pET 21a series vector. Following IPTG induction at 37° C. or 30° C., large amounts of saposins containing His-Tag were found in the soluble fraction of the disrupted cells. These were conveniently purified to electrophoretic homogeneity on nickel-loaded columns. Alternatively, saposins without His-Tag were generated by introducing a stop codon after protein coding region, and then purified using immuno-affinity columns with T7-taq monoclonal antibody. […] Circular dichroism spectra, light scattering, and ES-MS analyses were used to evaluate the physical properties of the purified saposins, such as aggregation status and molecular weight. Trp-saposins without His-Tag were also generated for necessary control experiments. The functional integrity of recombinant saposin C is determined using delipidated and homogenous acid β-glucosidase in a liposomal reconstitution system and in neuritogenic assays. Recombinant saposin B function is determined using a sulfatide binding assay.

[2] = Saposin C-PS(18:1,1) liposome complex: stability and mechanism of fusion; assay type: biochemical
Method: Protein conformational changes are thought to play a role in protein-mediated membrane fusion. This fusion mechanism is evaluated using saposin C-dependent membrane fusion. First, saposin C—PS(18:1,1) liposome complexes are formed. In this saposin C-anchored membrane, protein conformation is altered. This complex is stable from pH 3 to 10, and in low concentrations of SDS solution.
Since the Trp in saposin C(0W) is embedded inside of lipid bilayer, the change of its signal is indicative of that the surrounding environment of Trp has been changed. After about 20 to 30 ms, Trp fluorescence signal decreases to the starting level. […] Shortly after this, the signal drops back to starting level signaling on end of the fusion process. […] Therefore, a conformational change of saposin C upon lipid binding is […] for its fusogenic activity.

[3] = Fluorescence stopped-flow of saposin C binding to PS vesicles; conditions: PS(18:1,1) or BPS vesicles
Text: To investigate temporal and spatial interactions of saposins and liposomal membrane, fluorescence stopped-flow and quenching approaches are used with Trp as the intrinsic fluorescence probe of the saposins. These experiments allow identification of regional interactions between saposins and lipid bilayers, and also the kinetics of their binding.
This binding induces change is lipid-concentration dependent and requires at least one unsaturated fatty acid chain. To evaluate the kinetics of this interaction, stopped-flow experiments are conducted the change in fluorescence during saposin C/liposome complex formation is monitored. When saposin C(0W) is mixed with PS(18:1,1) or BPS vesicles, fluorescence of Trp is increased, but the time course of this change is undetectable due to limitation of the machine's capability. Apparently, the interaction of saposin C and unsaturated PS containing membranes occurs within at least 10 ms.

[4] = R18 dequenching stopped-flow liposomal fusion assay; assay type: biochemical; conditions: unsaturated PS(18:1,1) vesicles, compared with Ca^2+
Text: Fluorescence probes have been widely used to determine membrane fusion, such as fluorescence dequenching, and fluorescence resonance energy transfer (FET), and can be used for quantitative and kinetics analyses. The dequenching approach is used to investigate saposin C's fusogenic activity. Octadecyl rhodamine B (R18) is selected as fluorescence probe and is entrapped in internal aqueous compartment of liposomal vesicles by co-sonication with BPS or PS(18:1,1).
Fluorescence increase (dequenching) of R18 occurs upon R18 concentration decreases. After non-labeled and labeled vesicles fuse, the R18 concentration is diluted, resulting in an increase in intensity of fluorescence. R18-labeled vesicles (lipid:R18=96:4, mol:mol) are mixed with the same lipid vesicles without fluorescence probe. Stopped-flow assays are conducted to quickly mix these vesicles with saposin C or Ca^2+ ion. Time-trace curves are generated for kinetic analysis. […] Fusion occurs extensively when reaction temperature is above the phase Transition temperature (Tc) of phospholipids. The Tc of synthetic PS(18:1) is about −11° C., while the Tc of PS(18:0) is very high (68° C.). Thus, the lipid bilayer phase of PS(18:1,1) is different to that of BPS(18:0 and 18:1) at 24° C.

[5] = Vesicle size change determination (N4 plus submicron particle sizer); assay type: biochemical
Text: The amino acid residues 51-67 are necessary, but not sufficient, for its optimal enzymatic activation function. The disulfide structure and conformational alteration of saposin C upon lipid binding are also required for this activity. Three approaches are used for this study: (1) stopped-flow monitoring reduction of self-quenching resulting from fusion of fluorescence probe-containing vesicle with non-fluorescent vesicle induced by saposin C; (2) monitoring the lipid vesicle size changes upon addition of saposin C to vesicles, the size distribution as determined using N4 plus submicron particle sizer (Coulter Co.); (3) monitoring intrinsic fluorescence of Trp-saposin C change during liposomal fusion.
[…] is used for vesicle fusion analysis, since the size of fused vesicles is bigger than those of non-fused. N4 plus submicron particle size is used to estimate particle sizes in the range of 3 nm to 3 μm since most liposomes fit in this range. Sonication conditions with a cup sonicator give mono-dispersed BPS-liposomes with ˜200 nm in size. Upon addition of saposin C, these vesicles change to a larger size up to 2-3 μm. The size increase is related to vesicles fusion as shown by the above dequenching experiments.
Saposin C promotes the size changes at ˜50 nM concentration. To define the regions responsible for this fusion property, peptides containing only 50% of the NH2-terminal or 50% of the COOH-terminal halves in saposin C are tested. Both peptides show fusion activity.

B1: Saposin C: Recombinant saposin C, prosaposin-derived fusogenic lysosomal protein, expressed in E. coli (His-tag) (protein, listed as Homo sapiens)
chain: SDVYCEVCEFLVKEVTKLIDNNKTEKEILDAFDKMCSKLPKSLSEECQEVVDTYGSSILSILLEEVSPELVCSMLHLCSG
modifications: His-tag
- transport into neurons [1]: can be transported into the cultured mouse cortical and hippocampal neurons
- activation of acid β-glucosidase (acid β-glucosidase): excellent activation
- fusogenic activity when bound to lipid membrane [2]: retains the fusogenic activity
- time within which interaction with unsaturated PS containing membranes occurs [3]: ≤ 10 ms
- kinetics of induced membrane fusion [4]: same kinetics as those with Ca^2+
- concentration promoting the size changes ([5]; BPS-liposomes): ~50 nM
- vesicle size after addition of saposin C ([5]; mono-dispersed BPS-liposomes of ~200 nm before addition): 2-3 μm
- vesicle size enlargement ([5]; pH 4.7, over a 10 min period): enlarges vesicle size
- vesicle size enlargement ([5]; pH 7.4, over a 10 min period): not at pH 7.4

B2: Saposin C(S37W): saposin C with a Trp at residue 37 (in the middle) (protein, UniProt P07602 311-390, looked up, variant S37W)
Saposin-C: B1 chain with S37W
modifications: Saposin-C
- effect of Trp substitutions on activation properties (acid β-glucosidase): no effect

B3: Saposin C + Phosphatidylserine (18:1, 1): saposin C complexed with acidic, unsaturated phosphatidylserine PS(18:1,1) liposomes (protein, UniProt P07602 311-390, looked up)
Saposin-C: B1 chain
modifications: Saposin-C complexed with phosphatidylserine liposomes
notes: saposin C complexed with acidic, unsaturated phosphatidylserine PS(18:1,1) liposomes
- stability in low concentrations of SDS solution [2]: stable
